Patent US20230050972A1 (MOMENTA PHARMACEUTICALS, published 2023)
Where “and” joins values, the source holds several entries; their conditions need not be identical. Equal entries are not always repeated.

Legend:
[1] = target: T1, in-house generated I domain of α11β1 (human, UniProt Q9UKX5 159-349, limits assumed); assay: SPR, single-cycle injections of 33, 100 and 300 nM over the a11b1 I Domain
T1 construct: domain: I domain; also called human α11β1 I domain; α11β1 I Domain
T1 sequence (looked up): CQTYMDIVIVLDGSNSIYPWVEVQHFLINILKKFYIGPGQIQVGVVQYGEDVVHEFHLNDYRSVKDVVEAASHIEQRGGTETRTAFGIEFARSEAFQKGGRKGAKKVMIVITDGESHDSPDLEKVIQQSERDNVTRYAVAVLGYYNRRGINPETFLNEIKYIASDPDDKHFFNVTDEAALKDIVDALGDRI

recombinant human α11β1 [2] = target: T2, recombinant human α11β1 (human, UniProt Q9UKX5 23-1141; P05556 21-728); assay: SPR (Biacore T200), HIS-tagged human α11β1 captured on anti-HIS, single-cycle kinetics, 1:1 Langmuir fit
T2 construct: Coated in ELISA; ELISA and SPR material treated as one molecule; also called HIS-tagged human α11β1; integrin alpha 11 beta 1
Procedure: (§1) The affinity of antibodies for human α11β1 was measured by surface plasmon resonance assay (SPR). Affinity was measured at pH 7.6 and 25° C. with a Biacore T200 instrument. Anti-HIS antibody was immobilized on the SPR sensor surface using EDC/NHS covalent attachment. HIS-tagged human α11β1 was captured on the sensor surface and a single-cycle kinetics assay was used. Increasing concentrations of test antibody were injected in series over the sensor-bound α11β1. Dissociation was monitored for 1000 seconds. A sensor surface with only anti-HIS antibody and a series of blank injections were used to double-reference subtract the data. A 1:1 Langmuir model was fit to the data to estimate the kinetic association and dissociation constants. The affinity (equilibrium dissociation constant) of the interaction was calculated by dividing the kinetic dissociation constant by the kinetic association constant. Between injection cycles α11β1 and bound antibody were removed with an injection of 10 mM glycine at pH 1.5.

[3] = target: T3, α11β1 on human myofibroblasts (MF) (human, UniProt Q9UKX5 23-1188; P05556 21-798); assay: FACS titration on human myofibroblasts
T3 construct: whole, on cells
Procedure: Human Pulmonary Fibroblasts (ScienCell) were cultured in complete Fibroblast Growth Medium (ScienCell) until 80% confluent in T-150 flasks. Cells were washed and harvested using Accutase. Cells were seeded into T-150 flasks at 7,500 cells/cm² in complete FGF and cultured for 72 hours. Cells were then washed and starved in serum reduced medium for 24 hours. After starvation, cells were treated with TGFβ-1 (R&D Systems) for 72 hours. Cells were harvested using Accutase and seeded in 96-well conical bottom plates. Cells were blocked with Heat Inactived Fetal Bovine Serum (Gibco) for 30 minutes at 4° C. Cells were then incubated with anti-α11 antibodies at the doses described in each figure for 30 minutes at 4° C. A human anti-α11 antibody (Creative BioLabs) was included as a positive control as well as the appropriate IgG isotype negative controls. Cells were washed twice and incubated with PE conjugated secondary antibodies specific to the IgG class of the anti-α11 antibodies being tested for 30 minutes at 4° C. Cells were washed twice and fixed in 1% PFA for 30 minutes. Cells were acquired on a FACS Verse […]. Data were analyzed by gating on single cells and determining the geometric Mean Fluorescence Intensity (gMFI) in the PE channel for each sample.

recombinant human α11β1 [4] = target: T2, recombinant human α11β1; assay: SPR, HIS-tagged human α11β1 captured by anti-HIS, antibody as analyte, single-cycle kinetics
Procedure: as §1
The binding affinity of antibodies for the α11β1 Headpiece and α11β1 I Domain as measured by SPR is shown in FIG. 10A and FIG. 10B, respectively.

recombinant mouse α11β1 = target: T4, recombinant mouse α11β1 (mouse, UniProt P61622 23-1141; P09055 21-728, limits assumed); assay: ELISA on recombinant mouse α11β1
T4 construct: also called murine α11β1
In short: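 Antibody binding read at 450 nm after TMB development, using biotinylated anti-rabbit/mouse/human IgG then streptavidin-HRP. Antibody dilution series incubated 1 h at room temperature on BSA-blocked plates coated overnight at 4 °C with 0.25 μg/mL human or mouse α11β1.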

[5] = target: T5, human α11β1 expressed on the surface of CHO-K1 cells (human, UniProt Q9UKX5 23-1188); assay: cell-based or functional assay
[6] = target: T5, human α11β1 expressed on the surface of …; assay: FACS titration on Human CHO-α11 cells
Procedure: 200,000 cells (wild-type CHO-K1 cells or CHO-K1 cells expressing human α11) were incubated with each antibody at desired concentrations in FACS buffer for 30 min at 4° C. Then, the cells were washed with FACS buffer and incubated with secondary antibody at 1:100 dilution for 30 minutes at 4° C. Cells were then washed and fixed with 1% PFA in PBS for 20 minutes at room temperature; washed again and read on a cytometer in FACS buffer.

T3 sequence (Q9UKX5 23-1188, chain 1 of 2): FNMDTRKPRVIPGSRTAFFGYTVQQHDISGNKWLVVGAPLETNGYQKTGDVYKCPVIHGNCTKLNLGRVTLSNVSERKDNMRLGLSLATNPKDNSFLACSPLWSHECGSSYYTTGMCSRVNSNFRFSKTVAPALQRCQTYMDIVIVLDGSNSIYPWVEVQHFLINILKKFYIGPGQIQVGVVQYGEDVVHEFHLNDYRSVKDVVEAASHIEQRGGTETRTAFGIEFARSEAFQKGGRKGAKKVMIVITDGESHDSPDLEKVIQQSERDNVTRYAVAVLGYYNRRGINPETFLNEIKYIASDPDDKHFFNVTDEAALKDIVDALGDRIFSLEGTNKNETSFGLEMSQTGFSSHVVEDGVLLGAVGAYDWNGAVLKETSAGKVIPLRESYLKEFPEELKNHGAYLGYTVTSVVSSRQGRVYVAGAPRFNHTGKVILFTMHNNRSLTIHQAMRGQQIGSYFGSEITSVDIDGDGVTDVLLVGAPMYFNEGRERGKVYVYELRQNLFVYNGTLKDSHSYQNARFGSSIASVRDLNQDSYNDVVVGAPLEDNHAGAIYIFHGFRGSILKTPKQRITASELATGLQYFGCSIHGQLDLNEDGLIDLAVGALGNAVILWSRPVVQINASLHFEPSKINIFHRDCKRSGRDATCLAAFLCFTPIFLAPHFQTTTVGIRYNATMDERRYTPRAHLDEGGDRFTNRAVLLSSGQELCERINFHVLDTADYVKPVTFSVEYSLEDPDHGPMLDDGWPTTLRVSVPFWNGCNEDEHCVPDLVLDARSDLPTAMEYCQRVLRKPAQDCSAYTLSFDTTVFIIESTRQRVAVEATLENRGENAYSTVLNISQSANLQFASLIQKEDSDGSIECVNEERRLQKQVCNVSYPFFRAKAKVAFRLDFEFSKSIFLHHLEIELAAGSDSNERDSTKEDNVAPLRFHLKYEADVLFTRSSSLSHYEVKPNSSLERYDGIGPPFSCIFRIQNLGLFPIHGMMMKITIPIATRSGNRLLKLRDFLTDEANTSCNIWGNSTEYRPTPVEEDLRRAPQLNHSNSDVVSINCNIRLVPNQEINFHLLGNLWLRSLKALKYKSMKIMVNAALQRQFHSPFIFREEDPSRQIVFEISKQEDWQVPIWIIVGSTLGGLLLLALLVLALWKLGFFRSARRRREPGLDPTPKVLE
T3 sequence (P05556 21-798, chain 2 of 2): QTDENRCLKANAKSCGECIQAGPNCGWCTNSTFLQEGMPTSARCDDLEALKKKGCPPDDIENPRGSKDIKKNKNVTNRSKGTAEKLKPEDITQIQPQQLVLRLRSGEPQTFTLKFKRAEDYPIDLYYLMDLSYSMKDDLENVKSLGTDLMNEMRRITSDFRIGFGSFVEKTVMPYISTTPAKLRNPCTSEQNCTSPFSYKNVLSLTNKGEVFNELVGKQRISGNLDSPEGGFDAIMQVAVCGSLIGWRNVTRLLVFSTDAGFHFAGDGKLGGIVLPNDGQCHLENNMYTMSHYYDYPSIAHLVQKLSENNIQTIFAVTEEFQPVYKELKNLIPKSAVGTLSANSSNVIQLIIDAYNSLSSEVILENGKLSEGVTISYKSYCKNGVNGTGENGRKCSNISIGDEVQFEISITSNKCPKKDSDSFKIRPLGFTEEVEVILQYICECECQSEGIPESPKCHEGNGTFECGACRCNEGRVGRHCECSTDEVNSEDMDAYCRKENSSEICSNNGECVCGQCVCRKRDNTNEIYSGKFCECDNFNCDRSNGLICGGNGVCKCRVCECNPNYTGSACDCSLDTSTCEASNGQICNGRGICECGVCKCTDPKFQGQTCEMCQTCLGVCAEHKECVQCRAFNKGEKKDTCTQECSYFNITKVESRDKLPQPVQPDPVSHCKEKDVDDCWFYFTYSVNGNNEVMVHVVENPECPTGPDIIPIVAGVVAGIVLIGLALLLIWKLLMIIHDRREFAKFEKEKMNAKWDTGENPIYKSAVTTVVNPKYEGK
T5 sequence (Q9UKX5 23-1188): as the sequence (Q9UKX5 23-1188, chain 1 of 2) above
T2 sequence (Q9UKX5 23-1141 limits assumed, chain 1 of 2): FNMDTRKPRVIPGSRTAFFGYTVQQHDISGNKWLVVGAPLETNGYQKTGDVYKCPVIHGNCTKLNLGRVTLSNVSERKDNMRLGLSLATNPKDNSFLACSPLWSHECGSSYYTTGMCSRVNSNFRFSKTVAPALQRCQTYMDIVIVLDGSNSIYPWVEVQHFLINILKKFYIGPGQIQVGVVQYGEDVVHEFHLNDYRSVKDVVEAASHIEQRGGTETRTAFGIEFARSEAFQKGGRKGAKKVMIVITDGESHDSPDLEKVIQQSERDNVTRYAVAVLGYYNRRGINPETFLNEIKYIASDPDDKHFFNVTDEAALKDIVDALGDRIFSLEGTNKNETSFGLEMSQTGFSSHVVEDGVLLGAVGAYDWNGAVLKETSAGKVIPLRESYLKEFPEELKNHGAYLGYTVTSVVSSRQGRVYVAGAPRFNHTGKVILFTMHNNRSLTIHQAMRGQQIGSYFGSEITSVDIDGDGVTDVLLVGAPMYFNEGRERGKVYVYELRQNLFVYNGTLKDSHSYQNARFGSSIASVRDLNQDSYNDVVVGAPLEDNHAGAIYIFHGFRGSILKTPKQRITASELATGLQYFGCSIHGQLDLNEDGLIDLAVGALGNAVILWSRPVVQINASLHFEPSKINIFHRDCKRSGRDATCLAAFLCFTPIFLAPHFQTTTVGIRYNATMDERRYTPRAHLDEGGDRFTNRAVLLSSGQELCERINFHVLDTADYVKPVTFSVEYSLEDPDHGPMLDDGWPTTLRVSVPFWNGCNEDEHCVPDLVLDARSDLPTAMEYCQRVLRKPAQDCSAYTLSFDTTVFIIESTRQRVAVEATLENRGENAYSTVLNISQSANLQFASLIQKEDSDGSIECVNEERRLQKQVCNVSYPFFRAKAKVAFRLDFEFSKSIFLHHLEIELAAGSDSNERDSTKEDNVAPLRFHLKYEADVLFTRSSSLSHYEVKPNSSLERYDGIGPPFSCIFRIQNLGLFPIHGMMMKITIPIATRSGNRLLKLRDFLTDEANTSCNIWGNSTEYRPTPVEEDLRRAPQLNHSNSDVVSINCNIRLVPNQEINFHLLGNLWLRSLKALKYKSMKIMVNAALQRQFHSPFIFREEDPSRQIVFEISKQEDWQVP
T2 sequence (P05556 21-728 limits assumed, chain 2 of 2): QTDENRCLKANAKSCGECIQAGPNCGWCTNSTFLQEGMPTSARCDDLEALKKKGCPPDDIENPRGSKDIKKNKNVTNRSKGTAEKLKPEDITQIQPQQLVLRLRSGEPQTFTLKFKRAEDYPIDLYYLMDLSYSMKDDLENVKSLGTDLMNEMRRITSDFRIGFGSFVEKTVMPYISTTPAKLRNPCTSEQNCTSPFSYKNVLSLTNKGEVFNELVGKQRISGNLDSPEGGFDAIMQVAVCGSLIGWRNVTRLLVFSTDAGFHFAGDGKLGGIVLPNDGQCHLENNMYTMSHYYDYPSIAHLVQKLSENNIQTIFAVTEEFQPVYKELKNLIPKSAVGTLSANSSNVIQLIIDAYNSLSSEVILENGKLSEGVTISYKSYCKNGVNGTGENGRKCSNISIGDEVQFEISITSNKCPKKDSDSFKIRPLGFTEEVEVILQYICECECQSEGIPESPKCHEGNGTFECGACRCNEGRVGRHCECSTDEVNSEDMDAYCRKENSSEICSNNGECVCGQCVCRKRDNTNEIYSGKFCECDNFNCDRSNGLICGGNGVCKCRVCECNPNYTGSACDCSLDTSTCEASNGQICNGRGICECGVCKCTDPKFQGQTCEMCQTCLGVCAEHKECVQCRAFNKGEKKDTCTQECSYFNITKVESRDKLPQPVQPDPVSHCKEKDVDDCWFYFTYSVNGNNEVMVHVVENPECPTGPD

binding result [1]: no binding (tested: 300 nM)
koff (recombinant human α11β1 [2]): 0.000234 s⁻¹
EC50 [3]: 0.051 µg/mL and 0.3 nM
Kd (recombinant human α11β1 [4]): 48 pM
binding result (recombinant mouse α11β1): no binding
IC50, inhibition of adhesion of CHO-α11 cells to rat tail type I collagen [5]: 390 pM
EC50 [6]: 350 pM
B1: A11B1_16E10 (antibody, V domains shown)
VH: QSLEESGGDLVKPGASLTLTCRVSGFSFSSSYYMCWVRQAPGKGLEWIACIGTTRGSTYYATWAKGRFTISKISSTTVTLQMTSLTDADTATYFCARDATGYRINTIGLYFNLWGPGTLVTVSS
VL: AFELTQTPSSVEAAVGGTPTIKCQASQTIYSYLSWYQQKPGQPPKLLIYEASKLASGVPSRFSGSGSGTDYTLTISDLECADAATYYCQSYHGTASTEYNTFGGGTEVVVRG
notes: recombinant rabbit IgG, full chains
